According to US20150018665:

How the values were obtained:
[1] = tested on: TEV protease sensor, StrepII-GFP-(linker)-(protease site)-CGRP-Gly fusion with GGSG linker and ENLYFQG protease site, uncleaved
[2] = tested on: Caspase-3 sensor, StrepII-GFP-(linker)-(protease site)-CGRP-Gly fusion with GGSG linker and DEVD protease site, uncleaved
[3] = tested on: Enterokinase sensor, StrepII-GFP-(linker)-(protease site)-CGRP-Gly fusion with GGSG linker and DDDDK protease site, uncleaved

Substance: Tobacco Etch Virus (TEV) protease
- proteolytic cleavage of the sensor, read by CGRP receptor activation [1]: after being cleaved by their respective protease

Substance: caspase-3
- proteolytic cleavage of the sensor (MALDI spectrum) [2]: MALDI spectrum showing cleavage of caspase sensor
- proteolytic cleavage of the sensor, read by CGRP receptor activation [2]: after being cleaved by their respective protease

Substance: enterokinase
- proteolytic cleavage of the sensor, read by CGRP receptor activation [3]: after being cleaved by their respective protease
